Results reported in patent publication US20230114801A1 (SYSTIMMUNE, published 2023).

T1: CD19 (UniProt P15391 20-291, limits assumed)
T1 sequence (looked up): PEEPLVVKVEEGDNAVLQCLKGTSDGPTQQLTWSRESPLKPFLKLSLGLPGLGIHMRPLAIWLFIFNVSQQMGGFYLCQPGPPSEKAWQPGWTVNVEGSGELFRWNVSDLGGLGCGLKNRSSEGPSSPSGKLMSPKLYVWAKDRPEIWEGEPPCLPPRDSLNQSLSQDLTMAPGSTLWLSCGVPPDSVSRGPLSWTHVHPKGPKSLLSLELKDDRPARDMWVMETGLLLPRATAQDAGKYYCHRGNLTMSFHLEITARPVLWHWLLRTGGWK


Experiments:
Test in all cases: antigen binding kinetics; method not given
CD19 = target: T1, CD19
human PD-L1 = target: T2, human PD-L1 (human, UniProt Q9NZQ7 19-238)
T2 construct: Soluble antigen in Octet; bought; also called human PD-L1 (Acro PD1-H5229)

human CD3 = target: T3, human CD3 (human, UniProt P07766 23-126; P04234 22-105)
T3 construct: also called His-tagged human CD3; human CD3 (Acro CDD-H52W1)

human 4-1BB = target: T4, human 4-1BB (human, UniProt Q07011 24-186, limits assumed)
T4 construct: Soluble antigen in Octet; construct not described

Row | Kd (CD19) [nM] | Kd (human PD-L1) [nM] | Kd (human CD3) [nM] | Kd (human 4-1BB) [nM] | Binder
1 | 1.89 | 1.1 | 5.23 | 14.8 | SI-38P11 (other, penta-miniGNC; D1 αCD20 scFv, D2 αCD19, D3 αCD3 Fab without additional disulphide, D4 α4-1BB, D5 αPD-L1 scFv) chain 1: QIVLSQSPAILSASPGEKVTMTCRASSSVSYIHWFQQKPGSSPKPWIYATSNLASGVPVRFSGSGSGTSYSLTISRVEAEDAATYYCQQWTSNPPTFGGGTKLTVLGGGGSGGGGSGGGGSGGGGSQVQLQQPGAELVKPGASVKMSCKASGYTFTSYNMHWVKQTPGRGLEWIGAIYPGNGDTSYNQKFKGKATLTADKSSSTAYMQLSSLTSEDSAVYYCARSTYYGGDWYFNVWGAGTTVTVSSGGGGSGGGGSEVQLVESGGGLVQPGGSLRLSCAASGFTISTNAMSWVRQAPGKGLEWIGVITGRDITYYASWAKGRFTISRDNSKNTLYLQMNSLRAEDTAVYYCARDGGSSAITSNNIWGQGTLVTVSSASTKGPSVFPLAPSSKSTSGGTAALGCLVKDYFPEPVTVSWNSGALTSGVHTFPAVLQSSGLYSLSSVVTVPSSSLGTQTYICNVNHKPSNTKVDKRVEPKSCDKTHTCPPCPAPEAAGGPSVFLFPPKPKDTLMISRTPEVTCVVVDVSHEDPEVKFNWYVDGVEVHNAKTKPREEQYNSTYRVVSVLTVLHQDWLNGKEYKCAVSNKALPAPIEKTISKAKGQPREPQVYTLPPSRDELTKNQVSLSCAVKGFYPSDIAVEWESNGQPENNYKTTPPVLDSDGSFFLVSKLTVDKSRWQQGNVFSCSVMHEALHNHYTQKSLSLSPGGGGGSGGGGSDVVMTQSPSSVSASVGDRVTITCQASQNIRTYLSWYQQKPGKAPKLLIYAAANLASGVPSRFSGSGSGTDFTLTISDLEPGDAATYYCQSTYLGTDYVGGAFGGGTKLTVLGGGGSGGGGSGGGGSGGGGSEVQLVESGGGLVQPGGSLRLSCTASGFTISSYHMQWVRQAPGKGLEYIGTISSGGNVYYASSARGRFTISRPSSKNTVDLQMNSLRAEDTAVYYCARDSGYSDPMWGQGTLVTVSS chain 2: ENVLTQSPASLSASPGERVTITCSASSSVSYMHWYQQKPGQAPKLWIYDTSKLASGVPSRFSGSGSGNDHTLTISSMEPEDFATYYCFQGSVYPFTFGQGTKVTVLGGGGSGGGGSGGGGSGGGGSQVTLKESGPGLVQPGQTLSLTCAFSGFSLSTSGMGVGWIRQPPGKGLEWLAHIWWDDDKRYNPALKSRLTISKDTSKNQVYLQMNSLDAEDTAVYYCARMELWSYYFDYWGQGTLVTVSSGGGGSGGGGSDVVMTQSPSTLSASVGDRVTINCQASESISSWLAWYQQKPGKAPKLLIYEASKLASGVPSRFSGSGSGTEFTLTISSLQPDDFATYYCQGYFYFISRTYVNSFGGGTKVEIKRTVAAPSVFIFPPSDEQLKSGTASVVCLLNNFYPREAKVQWKVDNALQSGNSQESVTEQDSKDSTYSLSSTLTLSKADYEKHKVYACEVTHQGLSSPVTKSFNRGECGGDKTHTCPPCPAPEAAGGPSVFLFPPKPKDTLMISRTPEVTCVVVDVSHEDPEVKFNWYVDGVEVHNAKTKPREEQYNSTYRVVSVLTVLHQDWLNGKEYKCAVSNKALPAPIEKTISKAKGQPREPQVYTLPPSRDELTKNQVSLWCLVKGFYPSDIAVEWESNGQPENNYKTTPPVLDSDGSFFLYSKLTVDKSRWQQGNVFSCSVMHEALHNRFTQKSLSLSPGGGGGSGGGGSDIQMTQSPSTLSASVGDRVTITCQASQSISSHLNWYQQKPGKAPKLLIYKASTLASGVPSRFSGSGSGTEFTLTISSLQPDDFATYYCQQGYSWGNVDNVFGGGTKVTVLGGGGSGGGGSGGGGSGGGGSEVQLLESGGGLVQPGGSLSLSCAASGFSFSSGYDMCWVRQAPGKGLEWIACIAAGSAGITYDANWAKGRFTISRDNSKNTLYLQMNSLRAEDTAVYYCARSAFSFDYAMDLWGQGTLVTVSS
2 | 3.3 | 1.47 | 3.22 | 22.4 | SI-76PM1 (other, penta-miniGNC; as SI-38P11 but with an additional disulphide ('staple') in the D3 αCD3 Fab VH/VL) chain 1: QIVLSQSPAILSASPGEKVTMTCRASSSVSYIHWFQQKPGSSPKPWIYATSNLASGVPVRFSGSGSGTSYSLTISRVEAEDAATYYCQQWTSNPPTFGGGTKLTVLGGGGSGGGGSGGGGSGGGGSQVQLQQPGAELVKPGASVKMSCKASGYTFTSYNMHWVKQTPGRGLEWIGAIYPGNGDTSYNQKFKGKATLTADKSSSTAYMQLSSLTSEDSAVYYCARSTYYGGDWYFNVWGAGTTVTVSSGGGGSGGGGSEVQLVESGGGLVQPGGSLRLSCAASGFTISTNAMSWVRQAPGKCLEWIGVITGRDITYYASWAKGRFTISRDNSKNTLYLQMNSLRAEDTAVYYCARDGGSSAITSNNIWGQGTLVTVSSASTKGPSVFPLAPSSKSTSGGTAALGCLVKDYFPEPVTVSWNSGALTSGVHTFPAVLQSSGLYSLSSVVTVPSSSLGTQTYICNVNHKPSNTKVDKRVEPKSCDKTHTCPPCPAPEAAGGPSVFLFPPKPKDTLMISRTPEVTCVVVDVSHEDPEVKFNWYVDGVEVHNAKTKPREEQYNSTYRVVSVLTVLHQDWLNGKEYKCAVSNKALPAPIEKTISKAKGQPREPQVYTLPPSRDELTKNQVSLSCAVKGFYPSDIAVEWESNGQPENNYKTTPPVLDSDGSFFLVSKLTVDKSRWQQGNVFSCSVMHEALHNHYTQKSLSLSPGGGGGSGGGGSDVVMTQSPSSVSASVGDRVTITCQASQNIRTYLSWYQQKPGKAPKLLIYAAANLASGVPSRFSGSGSGTDFTLTISDLEPGDAATYYCQSTYLGTDYVGGAFGGGTKLTVLGGGGSGGGGSGGGGSGGGGSEVQLVESGGGLVQPGGSLRLSCTASGFTISSYHMQWVRQAPGKGLEYIGTISSGGNVYYASSARGRFTISRPSSKNTVDLQMNSLRAEDTAVYYCARDSGYSDPMWGQGTLVTVSS chain 2: ENVLTQSPASLSASPGERVTITCSASSSVSYMHWYQQKPGQAPKLWIYDTSKLASGVPSRFSGSGSGNDHTLTISSMEPEDFATYYCFQGSVYPFTFGQGTKVTVLGGGGSGGGGSGGGGSGGGGSQVTLKESGPGLVQPGQTLSLTCAFSGFSLSTSGMGVGWIRQPPGKGLEWLAHIWWDDDKRYNPALKSRLTISKDTSKNQVYLQMNSLDAEDTAVYYCARMELWSYYFDYWGQGTLVTVSSGGGGSGGGGSDVVMTQSPSTLSASVGDRVTINCQASESISSWLAWYQQKPGKAPKLLIYEASKLASGVPSRFSGSGSGTEFTLTISSLQPDDFATYYCQGYFYFISRTYVNSFGCGTKVEIKRTVAAPSVFIFPPSDEQLKSGTASVVCLLNNFYPREAKVQWKVDNALQSGNSQESVTEQDSKDSTYSLSSTLTLSKADYEKHKVYACEVTHQGLSSPVTKSFNRGECGGDKTHTCPPCPAPEAAGGPSVFLFPPKPKDTLMISRTPEVTCVVVDVSHEDPEVKFNWYVDGVEVHNAKTKPREEQYNSTYRVVSVLTVLHQDWLNGKEYKCAVSNKALPAPIEKTISKAKGQPREPQVYTLPPSRDELTKNQVSLWCLVKGFYPSDIAVEWESNGQPENNYKTTPPVLDSDGSFFLYSKLTVDKSRWQQGNVFSCSVMHEALHNRFTQKSLSLSPGGGGGSGGGGSDIQMTQSPSTLSASVGDRVTITCQASQSISSHLNWYQQKPGKAPKLLIYKASTLASGVPSRFSGSGSGTEFTLTISSLQPDDFATYYCQQGYSWGNVDNVFGGGTKVTVLGGGGSGGGGSGGGGSGGGGSEVQLLESGGGLVQPGGSLSLSCAASGFSFSSGYDMCWVRQAPGKGLEWIACIAAGSAGITYDANWAKGRFTISRDNSKNTLYLQMNSLRAEDTAVYYCARSAFSFDYAMDLWGQGTLVTVSS
